Experimental findings from the Human Domainome abundance scans (Beltran et al. 2025) are described below.

The labels stand for the following.
B1: Chromodomain-helicase-DNA-binding protein 7, residues 2564 to 2605; numbered along this chain, Q9P2D1 (parent)
chain: DPDTRIPVINLEDGTRLVGEDAPKNKDLVEWLKLHPTYTVDM

± gives the uncertainty stated by the source.

The data set covers variants of B1. The experiment in a line: abundance fitness (aPCA) (normalised: wild type 0, dead -1); higher = more abundant; growth selection in yeast, the domain comes from the species named. To be noted: Homo sapiens.
Regarding DPDTRIPVINLEDGTRLTGEDAPKNKDLVEWLKLHPTYTVDM [V18T], the abundance fitness stood at 0.118 ± 0.095. Under DPDTRIPVINLEDGTRLNGEDAPKNKDLVEWLKLHPTYTVDM [V18N] stands -0.06 ± 0.063. Under DPDTRIPVINLEDGTRLDGEDAPKNKDLVEWLKLHPTYTVDM [V18D] stands 0.147 ± 0.072. Under DPDTRIPVINLEDGTRLQGEDAPKNKDLVEWLKLHPTYTVDM [V18Q] stands 0.108 ± 0.087; under DPDTRIPVINLEDGTRLKGEDAPKNKDLVEWLKLHPTYTVDM [V18K], -0.154 ± 0.16. On to DPDTRIPVINLEDGTRLCGEDAPKNKDLVEWLKLHPTYTVDM [V18C], for which the abundance fitness turned out to be 0.074 ± 0.076. For the variant DPDTRIPVINLEDGTRLIGEDAPKNKDLVEWLKLHPTYTVDM [V18I], the abundance fitness came out at 0.155 ± 0.079. The figure for DPDTRIPVINLEDGTRLRGEDAPKNKDLVEWLKLHPTYTVDM [V18R] is -0.081 ± 0.055. Consider DPDTRIPVINLEDGTRLMGEDAPKNKDLVEWLKLHPTYTVDM [V18M], for which the abundance fitness turned out to be 0.091 ± 0.062. Regarding DPDTRIPVINLEDGTRLWGEDAPKNKDLVEWLKLHPTYTVDM [V18W], the abundance fitness was -0.132 ± 0.053. On to DPDTRIPVINLEDGTRLFGEDAPKNKDLVEWLKLHPTYTVDM [V18F], for which the abundance fitness was -0.165 ± 0.079. The figure for DPDTRIPVINLEDGTRLYGEDAPKNKDLVEWLKLHPTYTVDM [V18Y] is -0.065 ± 0.078. The figure for DPDTRIPVINLEDGTRLHGEDAPKNKDLVEWLKLHPTYTVDM [V18H] is -0.047 ± 0.069; for DPDTRIPVINLEDGTRLEGEDAPKNKDLVEWLKLHPTYTVDM [V18E] it is 0.039 ± 0.068; for DPDTRIPVINLEDGTRLGGEDAPKNKDLVEWLKLHPTYTVDM [V18G] it is -0.04 ± 0.059. Regarding DPDTRIPVINLEDGTRLSGEDAPKNKDLVEWLKLHPTYTVDM [V18S], the abundance fitness worked out at 0.076 ± 0.073. For DPDTRIPVINLEDGTRLLGEDAPKNKDLVEWLKLHPTYTVDM [V18L], the abundance fitness is -0.131 ± 0.071. The figure for DPDTRIPVINLEDGTRLPGEDAPKNKDLVEWLKLHPTYTVDM [V18P] is -0.372 ± 0.11. The figure for DPDTRIPVINLEDGTRLVGFDAPKNKDLVEWLKLHPTYTVDM [E20F] is -0.365 ± 0.085; for DPDTRIPVINLEDGTRLVGDDAPKNKDLVEWLKLHPTYTVDM [E20D] it is -0.059 ± 0.059. The figure for DPDTRIPVINLEDGTRLVGCDAPKNKDLVEWLKLHPTYTVDM [E20C] is -0.264 ± 0.056. For DPDTRIPVINLEDGTRLVGADAPKNKDLVEWLKLHPTYTVDM [E20A], the abundance fitness was -0.163 ± 0.11. The figure for DPDTRIPVINLEDGTRLVGIDAPKNKDLVEWLKLHPTYTVDM [E20I] is -0.208 ± 0.063; for DPDTRIPVINLEDGTRLVGHDAPKNKDLVEWLKLHPTYTVDM [E20H] it is -0.498 ± 0.15. The figure for DPDTRIPVINLEDGTRLVGGDAPKNKDLVEWLKLHPTYTVDM [E20G] is -0.196 ± 0.049; for DPDTRIPVINLEDGTRLVGKDAPKNKDLVEWLKLHPTYTVDM [E20K] it is -0.125 ± 0.1. The figure for DPDTRIPVINLEDGTRLVQEDAPKNKDLVEWLKLHPTYTVDM [G19Q] is -0.437 ± 0.12; for DPDTRIPVINLEDGTRLVFEDAPKNKDLVEWLKLHPTYTVDM [G19F] it is -0.852 ± 0.13. As to DPDTRIPVINLEDGTRLVIEDAPKNKDLVEWLKLHPTYTVDM [G19I], the abundance fitness is -0.644 ± 0.075. The figure for DPDTRIPVINLEDGTRLVTEDAPKNKDLVEWLKLHPTYTVDM [G19T] is -0.741 ± 0.08; for DPDTRIPVINLEDGTRLVWEDAPKNKDLVEWLKLHPTYTVDM [G19W] it is -0.638 ± 0.082. Under DPDTRIPVINLEDGTRLVHEDAPKNKDLVEWLKLHPTYTVDM [G19H] stands -0.478 ± 0.077. As for DPDTRIPVINLEDGTRLVVEDAPKNKDLVEWLKLHPTYTVDM [G19V], the abundance fitness was -0.64 ± 0.079. The figure for DPDTRIPVINLEDGTRLVNEDAPKNKDLVEWLKLHPTYTVDM [G19N] is -0.264 ± 0.16. Under DPDTRIPVINLEDGTRLVREDAPKNKDLVEWLKLHPTYTVDM [G19R] stands -0.59 ± 0.1; under DPDTRIPVINLEDGTRLVAEDAPKNKDLVEWLKLHPTYTVDM [G19A], -0.292 ± 0.11; under DPDTRIPVINLEDGTRLVKEDAPKNKDLVEWLKLHPTYTVDM [G19K], -0.262 ± 0.15. The figure for DPDTRIPVINLEDGTRLVLEDAPKNKDLVEWLKLHPTYTVDM [G19L] is -0.518 ± 0.13; for DPDTRIPVINLEDGTRLVDEDAPKNKDLVEWLKLHPTYTVDM [G19D] it is -0.125 ± 0.065. Consider DPDTRIPVINLEDGTRLVMEDAPKNKDLVEWLKLHPTYTVDM [G19M], for which the abundance fitness was -0.442 ± 0.073. Under DPDTRIPVINLEDGTRLVEEDAPKNKDLVEWLKLHPTYTVDM [G19E] stands -0.093 ± 0.11.

For the variant DPDTRIPVINLEDGTRLVYEDAPKNKDLVEWLKLHPTYTVDM [G19Y], the abundance fitness was -0.45 ± 0.12. The figure for DPDTRIPVINLEDGTRLVSEDAPKNKDLVEWLKLHPTYTVDM [G19S] is -0.468 ± 0.062. The figure for DPDTRIPVINLEDGTRQVGEDAPKNKDLVEWLKLHPTYTVDM [L17Q] is -0.124 ± 0.086. The figure for DPDTRIPVINLEDGTRHVGEDAPKNKDLVEWLKLHPTYTVDM [L17H] is -0.095 ± 0.41; for DPDTRIPVINLEDGTRPVGEDAPKNKDLVEWLKLHPTYTVDM [L17P] it is -1.01 ± 0.27. For DPDTRIPVINLEDGTRRVGEDAPKNKDLVEWLKLHPTYTVDM [L17R], the abundance fitness is -0.046 ± 0.064.

DPDTRIPVINLEDGTRGVGEDAPKNKDLVEWLKLHPTYTVDM [L17G]: the abundance fitness was -0.371 ± 0.056. Under DPDTRIPVINLEDGTRMVGEDAPKNKDLVEWLKLHPTYTVDM [L17M] stands 0.151 ± 0.073; under DPDTRIPVINLEDGTRFVGEDAPKNKDLVEWLKLHPTYTVDM [L17F], -0.191 ± 0.13; under DPDTRIPVINLEDGTRIVGEDAPKNKDLVEWLKLHPTYTVDM [L17I], -0.012 ± 0.072. Turning to DPDTRIPVINLEDGTRYVGEDAPKNKDLVEWLKLHPTYTVDM [L17Y], the abundance fitness is -0.217 ± 0.063. In the case of DPDTRIPVINLEDGTREVGEDAPKNKDLVEWLKLHPTYTVDM [L17E], the abundance fitness is -0.321 ± 0.12. On to DPDTRIPVINLEDGTRSVGEDAPKNKDLVEWLKLHPTYTVDM [L17S], for which the abundance fitness was -0.421 ± 0.06. Turning to DPDTRIPVINLEDGTRCVGEDAPKNKDLVEWLKLHPTYTVDM [L17C], the abundance fitness is -0.272 ± 0.051. Under DPDTRIPVINLEDGTRWVGEDAPKNKDLVEWLKLHPTYTVDM [L17W] stands -0.527 ± 0.08; under DPDTRIPVINLEDGTRTVGEDAPKNKDLVEWLKLHPTYTVDM [L17T], -0.308 ± 0.12. Under DPDTRIPVINLEDGTRDVGEDAPKNKDLVEWLKLHPTYTVDM [L17D] stands -0.41 ± 0.064; under DPDTRIPVINLEDGTRVVGEDAPKNKDLVEWLKLHPTYTVDM [L17V], -0.17 ± 0.055. Under DPDTRIPVINLEDGTRNVGEDAPKNKDLVEWLKLHPTYTVDM [L17N] stands -0.351 ± 0.17.
